Test results published in paper PMC10641233, “The C-terminal domain of the antiamyloid chaperone DNAJB6 binds to amyloid-β peptide fibrils and inhibits secondary nucleation” (The Journal of Biological Chemistry, 2023).
Each block holds one molecule with its values, some of them ahead of it.

B1: C-terminal domain (CTD) of DNAJB6, WT sequence (residues 186–242 plus a starting Met) (domain or fragment)
chain: MGNFKSISTSTKMVNGRKITTKRIVENGQERVEVEEDGQLKSLTINGKEQLLRLDNK
notes: starting Met added before residue 186; numbers count on: full-length DNAJB6; also called WT CTD

Columns and labels:
[1] = biological target: S100G-CTDβ1–2STA (ST/A-substituted variant of S100G-CTDβ1–2) (UniProt O75190); assay: cross-linking; 10 μM construct, BS3 amine-reactive crosslinker, 20 mM sodium phosphate, 0.2 mM EDTA (pH 8.0), SDS-PAGE with integration of band intensities and LC-MS/MS of excised bands; dimer to monomers; KD are lower bounds
[2] = biological target: Aβ42 fibrils (amyloid-β peptide Aβ(M1-42), fibrillar form); assay: SPR; Aβ42 fibrils immobilised, construct injected (CTD at 2, 5 and 10 μM); 20 mM sodium phosphate, 0.2 mM EDTA, pH 8.0, 0.005% Tween-20
[3] = biological target: S100G-CTDβ1–4 (four β-strands of the DNAJB6 CTD, residues 187–231, grafted between the two EF-hands of human S100G) (UniProt O75190); assay: cross-linking; 10 μM construct, BS3 amine-reactive crosslinker, 20 mM sodium phosphate, 0.2 mM EDTA (pH 8.0), SDS-PAGE with integration of band intensities and LC-MS/MS of excised bands; dimer to monomers; KD are lower bounds
[4] = biological target: S100G-CTDβ1–4STA (ST/A-substituted variant of S100G-CTDβ1–4) (UniProt O75190); assay: as above
[5] = biological target: S100G-CTDβ1–2 (β-strands 1 and 2 of the DNAJB6 CTD, residues 187–212, grafted between the two EF-hands of human S100G) (UniProt O75190); assay: as above
[6] = biological target: Aβ42 fibrils (amyloid-β peptide Aβ(M1-42), fibrillar form)
[7] = biological target: the molecule itself; assay: native MS; equimolar mixture of CTD and CTD STA ionised from 200 mM ammonium acetate, pH 6.8, source temperature 25 °C, gentle ionisation; also nonmixed samples (Fig. S3)
[8] = biological target: the molecule itself; assay: cross-linking; 10 μM construct, BS3 amine-reactive crosslinker, 20 mM sodium phosphate, 0.2 mM EDTA (pH 8.0), SDS-PAGE with integration of band intensities and LC-MS/MS of excised bands; tetramer to dimers; KD is a lower bound
[9] = biological target: the molecule itself; assay: cross-linking; 10 μM construct, BS3 amine-reactive crosslinker, 20 mM sodium phosphate, 0.2 mM EDTA (pH 8.0), SDS-PAGE with integration of band intensities and LC-MS/MS of excised bands; dimer to monomers; KD are lower bounds
[10] = biological target: B1; assay: native MS; equimolar mixture of CTD and CTD STA ionised from 200 mM ammonium acetate, pH 6.8, source temperature 25 °C, gentle ionisation; also nonmixed samples (Fig. S3); settings: both partners purified

- Kd [1]: > 1 mM
Molecule: S100G-CTDβ1–2STA (ST/A-substituted variant of S100G-CTDβ1–2) (from UniProt O75190-2 187-212)

- Kd [4]: > 1 mM
Molecule: S100G-CTDβ1–4STA (ST/A-substituted variant of S100G-CTDβ1–4) (from UniProt O75190-2 187-231)

- Ka [2]: 300000 M⁻¹
- Kd [5]: > 60 µM
Molecule: S100G-CTDβ1–2 (β-strands 1 and 2 of the DNAJB6 CTD, residues 187–212, grafted between the two EF-hands of human S100G) (from UniProt O75190-2 187-212)

- Ka [2]: 100000 M⁻¹
- ThT fluorescence, reaction half time t1/2 of the aggregation of 3 μM Aβ42, CTD:Aβ42 M ratios from 0.05:1 to 1:1 [6]: 10 fold
Molecule: C-terminal domain (CTD) of DNAJB6, WT sequence (residues 186–242 plus a starting Met) (from UniProt O75190-2 186-241) (domain or fragment)

Continued, molecule first:

Molecule: S100G-CTDβ1–4 (four β-strands of the DNAJB6 CTD, residues 187–231, grafted between the two EF-hands of human S100G) (from UniProt O75190-2 187-231)
- Ka [2]: 1e+07 M⁻¹
- Kd [3]: > 500 µM

Molecule: B1
- stoichiometry N [7]: 2
- Kd [8]: ≥ 2000 nM
- stoichiometry N [8]: 4
- Kd [9]: ≥ 30 µM

B2: CTD STA (CTD with S190A + S192A + T193A + S194A + T195A in β1) (domain or fragment)
chain: MGNFKAIAAAAKMVNGRKITTKRIVENGQERVEVEEDGQLKSLTINGKEQLLRLDNK
notes: starting Met added before residue 186; numbers count on: full-length DNAJB6; also called S/T-A-substituted variant
- stoichiometry N [7]: 2
- binding result [10]: binds
- Kd [9]: ≥ 600 µM
